Where a chain is given by its changes, count along the chain named. Numbers in names are those of the source. Read-outs that look alike come from different tables or passages of the source.

Series [1] addresses T1, StrepII-SUMO-DUX4-His6 (Homo sapiens, UniProt Q9UBX2 1-424). Put plainly: TR-FRET competition.
The target in series [2] is T1, StrepII-SUMO-DUX4-His6. The experiment in a line: TR-FRET competition. The source holds these as a separate data set.
The target of series [3] is T2, PROP1-cMyc-DDK (UniProt O75360 1-226). The experiment in a line: TR-FRET competition.
T2 sequence (O75360 whole entry): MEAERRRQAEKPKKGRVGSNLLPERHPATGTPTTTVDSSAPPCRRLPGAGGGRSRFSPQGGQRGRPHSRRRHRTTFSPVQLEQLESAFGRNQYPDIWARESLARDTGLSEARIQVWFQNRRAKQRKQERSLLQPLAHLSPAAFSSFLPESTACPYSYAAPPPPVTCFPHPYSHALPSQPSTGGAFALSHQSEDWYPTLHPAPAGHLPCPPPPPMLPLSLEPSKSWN
The target of series [4] is T1, StrepII-SUMO-DUX4-His6. The experiment in a line: TR-FRET competition. This is another data set of the same source.
Series [5] concerns the target T1, StrepII-SUMO-DUX4-His6. Put plainly: TR-FRET competition. This is another data set of the same source.
Series [6] deals with T1, StrepII-SUMO-DUX4-His6. Put plainly: TR-FRET competition. The source holds these as a separate data set.
Series [7] deals with T1, StrepII-SUMO-DUX4-His6. The experiment in a line: TR-FRET competition. This is another data set of the same source.
Series [8] has as its target T1, StrepII-SUMO-DUX4-His6. Put plainly: TR-FRET competition. This is another data set of the same source.
Series [9] deals with T1, StrepII-SUMO-DUX4-His6. The experiment in a line: TR-FRET competition. This is another data set of the same source.
Series [10] concerns the target T1, StrepII-SUMO-DUX4-His6. The experiment in a line: TR-FRET competition. This is another data set of the same source.
Series [11] concerns the target T1, StrepII-SUMO-DUX4-His6. Put plainly: TR-FRET competition. This is another data set of the same source.
Series [12] addresses T2, PROP1-cMyc-DDK. The experiment in a line: TR-FRET competition. The source holds these as a separate data set.
Series [13] deals with T1, StrepII-SUMO-DUX4-His6. The experiment in a line: TR-FRET competition. This is another data set of the same source.
Series [14] deals with T1, StrepII-SUMO-DUX4-His6. The experiment in a line: EMSA.
For series [15], the target named is T1, StrepII-SUMO-DUX4-His6. Put plainly: fluorescence polarization.
For series [16], the target named is T1, StrepII-SUMO-DUX4-His6. The experiment in a line: TR-FRET competition. This is another data set of the same source.
In series [17] the target is T1, StrepII-SUMO-DUX4-His6. Put plainly: TR-FRET competition. This is another data set of the same source.
Series [18] concerns the target T2, PROP1-cMyc-DDK. The experiment in a line: TR-FRET competition. This is another data set of the same source.

T1 sequence (Q9UBX2 whole entry): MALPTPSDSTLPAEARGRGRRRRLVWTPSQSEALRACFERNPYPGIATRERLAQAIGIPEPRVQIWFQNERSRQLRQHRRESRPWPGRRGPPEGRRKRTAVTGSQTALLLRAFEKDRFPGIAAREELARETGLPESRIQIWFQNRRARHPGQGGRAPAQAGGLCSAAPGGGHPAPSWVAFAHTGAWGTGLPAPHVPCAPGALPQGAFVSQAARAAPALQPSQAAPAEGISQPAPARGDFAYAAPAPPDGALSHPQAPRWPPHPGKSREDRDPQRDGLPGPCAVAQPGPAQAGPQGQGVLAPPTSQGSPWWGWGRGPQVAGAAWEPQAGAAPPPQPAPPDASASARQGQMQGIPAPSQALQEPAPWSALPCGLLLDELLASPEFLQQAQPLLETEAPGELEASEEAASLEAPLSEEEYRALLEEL

B1: DUX4_TCT_F8CCCC (structured_DNA)
DNA: GCTAATCTAACCCCTCAACCGCAGGTTGATTAGATTAGC
In the case of B1, the binding result in the series with StrepII-SUMO-DUX4-His6 [1] is recorded as “binds”.

B2: DUX4_TCT_R7CCCC (structured_DNA)
DNA: GCTAATCTAATCAACCGCAGGTTGATTAGCCCCATTAGC
B2: the binding result with StrepII-SUMO-DUX4-His6 [2] is reported as “binds”.

B3: DUX4_CTT_F8C_R7CCC (structured_DNA)
DNA: GCTAACTTAACTCAACCGCAGGTTGATTAACCCGTTAGC
In the case of B3, the binding result with PROP1-cMyc-DDK [3] is recorded as “binds”. Further, the binding signal with StrepII-SUMO-DUX4-His6 [4] was ~2 fold lower affinity than single-loop DUX4_CTT_R7CCC.

B4: DUX4_TCT_F8C (structured_DNA)
DNA: GCTAATCTAACTCAACCGCAGGTTGATTAGATTAGC
With B4, in the series with StrepII-SUMO-DUX4-His6 [5], the binding result is reported as “binds”.

B5: DUX4_TCT_F8G (structured_DNA)
DNA: B4 DNA with C11G
With B5, the binding result with StrepII-SUMO-DUX4-His6 [6] was “binds”.

B6: DUX4_TCT_F8T (structured_DNA)
DNA: B4 DNA with C11T
As for B6, in the series with StrepII-SUMO-DUX4-His6 [6], the binding result was “binds”.

B7: DUX4_TCT_F8CC (structured_DNA)
DNA: GCTAATCTAACCTCAACCGCAGGTTGATTAGATTAGC
For the molecule B7, in the series with StrepII-SUMO-DUX4-His6 [7], the binding result is reported as “binds”.

B8: DUX4_TCT_F8CT (structured_DNA)
DNA: B7 DNA with C12T
Consider B8, for which the binding result in the series with StrepII-SUMO-DUX4-His6 [1] is recorded as “binds”.

B9: DUX4_TCT_R7CC (structured_DNA)
DNA: GCTAATCTAATCAACCGCAGGTTGATTAGCCATTAGC
As to B9, the binding result with StrepII-SUMO-DUX4-His6 [8] was “binds”.

B10: DUX4_TCT_R7TTT (structured_DNA)
DNA: GCTAATCTAATCAACCGCAGGTTGATTAGTTTATTAGC
Consider B10, for which the binding result with StrepII-SUMO-DUX4-His6 [9] is reported as “binds”.

B11: DUX4_TCT_R7C (structured_DNA)
DNA: GCTAATCTAATCAACCGCAGGTTGATTAGCATTAGC
B11: the binding result with StrepII-SUMO-DUX4-His6 [2] is on record as “binds”.

B12: DUX4_TCT (structured_DNA)
DNA: GCTAATCTAATCAACCGCAGGTTGATTAGATTAGC
B12: the binding signal in the series with StrepII-SUMO-DUX4-His6 [10] is ~3 fold higher IC50 than DUX4_CCT.

B13: DUX4_CCT (structured_DNA)
DNA: B12 DNA with T6C, A30G
For the molecule B13, the binding result with StrepII-SUMO-DUX4-His6 [11] is recorded as “binds”.

B14: PROP1 aptamer (structured_DNA)
DNA: B12 DNA with C7T, C12T, G24A, G29A
Regarding B14, the binding result with PROP1-cMyc-DDK [12] is recorded as “binds”.

B15: SELEX#1 (structured_DNA)
DNA: GCATAAACTTAATCAAGACCAGGTCATTGATTAACGCTCGTTTGG
Consider B15, for which the binding result with StrepII-SUMO-DUX4-His6 [13] is “binds”.

B16: SELEX#5 (structured_DNA)
DNA: CTAGATTAACCCGTTTACCAAGCGATGGAAACTTAATCTCCATGG
As for B16, the binding result in the series with StrepII-SUMO-DUX4-His6 [13] is “binds”.

B17: SELEX#2 (structured_DNA)
DNA: TGGTGAAGCGCAAGGAAACTTAATCACAAGGTGATTAATTGTTTG
With B17, in the series with StrepII-SUMO-DUX4-His6 [13], the binding result was “binds”.

B18: DUX4_TCT_R7CCCCC (structured_DNA)
DNA: GCTAATCTAATCAACCGCAGGTTGATTAGCCCCCATTAGC
B18: in the series with StrepII-SUMO-DUX4-His6 [2], the binding result is on record as “binds”.

B19: DUX4_CTT_R7CCC as in T1 for S3B-C (structured_DNA)
DNA: AGCTAACCTAATCAACCGCAGGTTGATTAGCCCGTTAGC
As to B19, in the series with StrepII-SUMO-DUX4-His6 [14], the binding result is “binds”.

B20: Kd aptamer as printed in text and Fig 7 (structured_DNA)
DNA: GCTAACTTAATCAACCGCAGGTTGATTAGCCCATTAGC
Turning to B20, the dissociation constant Kd in the series with StrepII-SUMO-DUX4-His6 [15] was roughly 20 nM.

B21: DUX4_TCT_R7CCC (structured_DNA)
DNA: B20 DNA with C6T, T7C
As for B21, the binding signal with StrepII-SUMO-DUX4-His6 [16] was ~10 fold affinity vs loop-free template.

B22: DUX4_CTT_R7CCC (DUX4_CTT_loop) (structured_DNA)
DNA: B20 DNA with G29A, A33G
B22: the binding signal with StrepII-SUMO-DUX4-His6 [17] is ~21 fold IC50 gain vs DUX4_CTT; with PROP1-cMyc-DDK [18], ~5 fold IC50 gain vs DUX4_CTT; in the series with StrepII-SUMO-DUX4-His6 [4], roughly 20 fold affinity vs backbone.

B23: DUX4_TCT_F8CCC (structured_DNA)
DNA: GCTAATCTAACCCTCAACCGCAGGTTGATTAGATTAGC
B23: in the series with StrepII-SUMO-DUX4-His6 [1], the binding result is listed as “binds”.

The values are drawn from paper PMC7079142.
